Data taken from IntAct's records for PubMed 31515488.

B1: Protein sprouty homolog 1 (Homo sapiens), O43609 (parent)
chain: MDPQNQHGSGSSLVVIQQPSLDSRQRLDYEREIQPTAILSLDQIKAIRGSNEYTEGPSVVKRPAPRTAPRQEKHERTHEIIPINVNNNYEHRHTSHLGHAVLPSNARGPILSRSTSTGSAASSGSNSSASSEQGLLGRSPPTRPVPGHRSERAIRTQPKQLIVDDLKGSLKEDLTQHKFICEQCGKCKCGECTAPRTLPSCLACNRQCLCSAESMVEYGTCMCLVKGIFYHCSNDDEGDSYSDNPCSCSQSHCCSRYLCMGAMSLFLPCLLCYPPAKGCLKLCRRCYDWIHRPGCRCKNSNTVYCKLESCPSRGQGKPS

Variants of: B1
Details: with nt2na_human NOTCH2NLA

Effect of a mutation on the interaction, with no effect:
R24H
A37T
R296K

Variants of: B1
Details: with otx1_human OTX1, P32242
otx1_human OTX1, P32242, sequence (P32242 whole entry): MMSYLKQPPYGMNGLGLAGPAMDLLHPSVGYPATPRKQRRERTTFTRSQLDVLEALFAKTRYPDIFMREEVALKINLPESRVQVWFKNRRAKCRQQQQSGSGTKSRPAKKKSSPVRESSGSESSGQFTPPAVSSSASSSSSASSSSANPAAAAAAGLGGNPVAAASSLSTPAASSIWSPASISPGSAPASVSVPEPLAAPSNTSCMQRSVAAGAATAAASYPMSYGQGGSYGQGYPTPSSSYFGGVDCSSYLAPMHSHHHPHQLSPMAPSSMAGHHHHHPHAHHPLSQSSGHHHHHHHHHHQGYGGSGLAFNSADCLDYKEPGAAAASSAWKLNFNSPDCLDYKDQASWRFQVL

Effect of a mutation on the interaction, with no effect:
R24H
A37T
R296K

Variants of: B1
Details: with meox2_human MEOX2, P50222
meox2_human MEOX2, P50222, sequence (P50222 whole entry): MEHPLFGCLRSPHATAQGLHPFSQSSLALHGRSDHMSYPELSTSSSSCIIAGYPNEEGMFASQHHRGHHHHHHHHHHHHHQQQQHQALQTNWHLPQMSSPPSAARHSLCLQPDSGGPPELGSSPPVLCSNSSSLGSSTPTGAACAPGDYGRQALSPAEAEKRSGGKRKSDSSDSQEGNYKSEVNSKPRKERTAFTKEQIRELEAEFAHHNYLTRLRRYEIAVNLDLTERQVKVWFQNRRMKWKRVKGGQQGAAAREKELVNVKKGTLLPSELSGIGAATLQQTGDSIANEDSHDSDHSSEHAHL

Effect of a mutation on the interaction, with no effect:
R24H
A37T
R296K

Variants of: B1
Details: with kr101_human KRTAP10-1, P60331
kr101_human KRTAP10-1, P60331, sequence (P60331 whole entry): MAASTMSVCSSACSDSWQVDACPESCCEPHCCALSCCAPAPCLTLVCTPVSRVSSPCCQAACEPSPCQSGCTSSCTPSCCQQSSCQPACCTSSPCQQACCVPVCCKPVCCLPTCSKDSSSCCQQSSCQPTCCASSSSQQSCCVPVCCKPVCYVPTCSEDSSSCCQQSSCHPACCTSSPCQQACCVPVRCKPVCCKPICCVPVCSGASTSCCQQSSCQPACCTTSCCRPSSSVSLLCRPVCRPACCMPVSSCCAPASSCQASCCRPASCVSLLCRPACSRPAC

Effect of a mutation on the interaction, with no effect:
R24H
A37T
R296K
